Data taken from patent US20240029824A1 (University of Washington, published 2024).

B2: DHT05 chain B (SEQ ID NO: 88) (designed binder)
chain: SEVEKRLLEIHRRVAESHRILVEVHEALIEALRGNSEEAKEKLKELVKELEKIIKEEEELLKELEKIVEEAS

What was measured:
DHT01 chain B = target: T1, DHT01 chain B; assay: co-expression, IMAC and Strep-Tactin pull-down, SEC, native MS; chains of one ABC heterotrimer
T1 chain: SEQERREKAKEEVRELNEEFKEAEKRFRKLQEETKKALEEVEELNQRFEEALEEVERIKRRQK
Excerpt: (§1) We obtained genes encoding 20 coiled coil designed heterotrimers (DHTs) in a tricistronic E. coli expression vector with one chain having a 6×His-tag and a second chain having Strep-tag II, expressed the proteins, and purified by immobilized metal affinity chromatography (IMAC) and Strep-Tactin pull-down. All designs were soluble and for 6 designs, all three components were observed by liquid chromatography-mass spectrometry (LC-MS) after both pull-down approaches. Of these, 5 eluted as monodisperse peaks by SEC, but only 1 design (DHT01) was an exclusive ABC heterotrimer by native mass spectrometry (nMS) and had good agreement with the design model via small angle X-ray scattering (SAXS) (FIG. 2d, Table 7).
(§2) Samples were analyzed by online buffer exchange native mass spectrometry (nMS) to evaluate sample purity and accurately determine oligomeric states⁴². Multiple instruments were used as the analyses were carried out over the duration of the protein design process. The mass spectrometers used for detection were a Q Exactive™ UHMR modified with a surface-induced dissociation device and an Exactive™ Plus EMR modified with a selection quadrupole and a surface-induced dissociation device (Thermo Fisher Scientific)⁴³. The liquid chromatography systems used for the buffer exchange include a Vanquish™ Duo UHPLC and a Dionex™ Ultimate 3000 HPLC (Thermo Fisher Scientific). A heated electrospray ionization source (HESI-II, Thermo Fisher Scientific) with a spray voltage of ˜4 kV was used for ionization. Protein samples stored in Tris buffer were injected (0.1-2 ug) onto the LC system and exchanged at a flow rate of 100-200 uL*min⁻¹ into 200 mM ammonium acetate (mobile phase) prior to ionization. Buffer exchange columns used include self-packed columns with P6 polyacrylamide gel (Bio-Rad Laboratories) and prototype buffer exchange columns provided by Thermo Fisher Scientific (Sunnyvale, CA). Instrument parameters were optimized to allow for ion transmission while minimizing unintentional ion activation. […]

DHT01 chain C = target: T2, DHT01 chain C; assay: as above
T2 chain: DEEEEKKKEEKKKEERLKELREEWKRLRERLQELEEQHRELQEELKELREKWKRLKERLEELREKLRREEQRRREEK
Excerpt: as §1, §2

[1] = target: T3, DHT05 chain C (SEQ ID NO: 89); assay: SEC and SAXS; chains of one ABC heterotrimer
T3 chain: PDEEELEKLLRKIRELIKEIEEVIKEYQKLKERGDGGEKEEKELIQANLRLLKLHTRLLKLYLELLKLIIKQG

[2] = target: B2; assay: SEC and SAXS; chains of one ABC heterotrimer
DHT08 chain C = target: T4, DHT08 chain C; assay: co-expression, IMAC, SEC, native MS; chains of one ABC heterotrimer
T4 chain: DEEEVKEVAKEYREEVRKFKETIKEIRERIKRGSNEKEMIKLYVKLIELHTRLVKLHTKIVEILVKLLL
Excerpt: (§3) Genes encoding 85 heterotrimers in a tricistronic expression vector were obtained, and the proteins were expressed in E. coli and purified via IMAC with only one chain having the 6×His-tag. Nine of the designs (FIG. 3a) had monodisperse SEC peaks (FIG. 3b), were almost exclusively ABC by nMS, and had good SAXS fits to the design models (Table 7). […] Eight of the designs are parallel heterotrimers, while DHTO9 is an antiparallel heterotrimer. […] For 3 other designs, only the ABC heterotrimer was determined to form by nMS (when the respective SEC fraction was analyzed) but the heterotrimer SEC peak was preceded by soluble aggregate that would make building with these constructs difficult downstream. We explored the dependence of cooperativity on connectivity between the three chains by changing the positions of the loops across different helices in DHT03, while keeping the rest of the interface intact. […] The ability to sustain alternate loop closures increases the number of heteromeric building blocks available for future nanostructure assembly applications and may enable rigid fusion of functional domains to the different termini available.
(§4) Samples were analyzed by online buffer exchange native mass spectrometry (nMS) to evaluate sample purity and accurately determine oligomeric states⁴². Multiple instruments were used as the analyses were carried out over the duration of the protein design process. The mass spectrometers used for detection were a Q Exactive™ UHMR modified with a surface-induced dissociation device and an Exactive™ Plus EMR modified with a selection quadrupole and a surface-induced dissociation device (Thermo Fisher Scientific)⁴³. The liquid chromatography systems used for the buffer exchange include a Vanquish™ Duo UHPLC and a Dionex™ Ultimate 3000 HPLC (Thermo Fisher Scientific). A heated electrospray ionization source (HESI-II, Thermo Fisher Scientific) with a spray voltage of ˜4 kV was used for ionization.

DHT09 chain C = target: T5, DHT09 chain C; assay: as above
T5 chain: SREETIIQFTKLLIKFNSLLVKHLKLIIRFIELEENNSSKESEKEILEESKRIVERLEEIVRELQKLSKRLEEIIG
Excerpt: as §3, §4

DHT10 chain C = target: T6, DHT10 chain C; assay: as above
T6 chain: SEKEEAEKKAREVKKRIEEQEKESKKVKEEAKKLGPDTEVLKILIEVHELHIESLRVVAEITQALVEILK
Excerpt: as §3, §4

[3] = target: T7, DHT03_variant_ABC-2 chain C; assay: native MS; loop-connectivity variant of DHT03, chains of one ABC heterotrimer
T7 chain: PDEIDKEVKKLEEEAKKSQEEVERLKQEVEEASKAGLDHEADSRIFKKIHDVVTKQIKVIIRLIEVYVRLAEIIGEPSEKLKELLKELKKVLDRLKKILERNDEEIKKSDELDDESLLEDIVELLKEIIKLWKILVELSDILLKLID

[4] = target: T8, DHT03 chain C (SEQ ID NO: 65); assay: co-expression, SEC, native MS, SAXS; chains of one ABC heterotrimer
T8 chain: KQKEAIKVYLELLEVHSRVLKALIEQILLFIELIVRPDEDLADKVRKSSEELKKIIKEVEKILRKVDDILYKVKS

[5] = target: T9, DHT03_3arm_A21/B21/C82 chain C; assay: individually purified chains mixed 1:1:1, heat annealed, SEC
T9 construct: also called chain C DHR82 fusion; chain C of C3-DHT03-01-DHR82 and C4-DHT03-01-DHR82
T9 chain: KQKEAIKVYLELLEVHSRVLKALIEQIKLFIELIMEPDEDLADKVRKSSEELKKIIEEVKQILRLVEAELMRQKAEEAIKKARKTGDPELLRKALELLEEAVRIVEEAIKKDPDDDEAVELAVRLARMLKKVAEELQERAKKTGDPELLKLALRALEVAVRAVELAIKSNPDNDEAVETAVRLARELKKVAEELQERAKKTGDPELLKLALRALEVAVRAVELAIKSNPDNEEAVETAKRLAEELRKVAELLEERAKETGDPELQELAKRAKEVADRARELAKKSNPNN
Excerpt: (§5) To test this idea, an equimolar amount of individually purified A, B, and C of DHT03_2arm_A21/B21/C were mixed together and run through an annealing protocol (see Methods) to allow these interfaces to reassemble in the presence of all components. A monodisperse SEC peak was observed belonging to the ABC heterotrimer state as confirmed by overlap with its SEC co-expressed tricistronic version (FIG. 3d). To explore the use of this approach for building, four different repeat protein fusions to chain C were annealed in the same manner and all four 3-arm heterotrimers were successfully reconstituted. […] The successful reconstitution of these ABC assemblies, following the independent expression and purification of each chain and explicit mixing at a 1:1:1 ratio, enables their use in conjunction with other de novo proteins to mediate the specific assembly of multi-component assemblies. Independent expression also has considerable advantages over tricistronic expression from a gene synthesis perspective as DNA becomes much more difficult and expensive to synthesize with increasing construct size.
(§6) To test whether the DHT03 components could properly assemble in the presence of other helical hairpin containing chains, as would be the case for more complex assemblies, we chose DHD131, a designed helical hairpin unit heterodimer containing buried hydrogen bond networks¹². […] We evaluated simultaneous reconstitution of DHD131 and DHT03_3arm_A21/B21/C82, since the size difference between the two constructs (if correctly assembled) should be detected by SEC. We separately expressed and individually purified the two chains of the heterodimer and the three chains of the heterotrimer, mixed them at a 1:1:1:1:1 ratio, and carried out annealing and SEC as described above.

[6] = target: T10, DHT03_3arm_A21/B21/C53 chain C; assay: as above
T10 chain: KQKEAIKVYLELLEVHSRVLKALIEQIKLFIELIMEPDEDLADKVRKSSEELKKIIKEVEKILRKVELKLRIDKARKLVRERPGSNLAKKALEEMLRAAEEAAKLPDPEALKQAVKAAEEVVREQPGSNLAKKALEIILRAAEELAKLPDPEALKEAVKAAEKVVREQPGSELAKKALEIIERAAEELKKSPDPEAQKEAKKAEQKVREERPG
Excerpt: as §5, §6

[7] = target: T11, DHT03_3arm_A21/B21/C62 chain C; assay: as above
T11 chain: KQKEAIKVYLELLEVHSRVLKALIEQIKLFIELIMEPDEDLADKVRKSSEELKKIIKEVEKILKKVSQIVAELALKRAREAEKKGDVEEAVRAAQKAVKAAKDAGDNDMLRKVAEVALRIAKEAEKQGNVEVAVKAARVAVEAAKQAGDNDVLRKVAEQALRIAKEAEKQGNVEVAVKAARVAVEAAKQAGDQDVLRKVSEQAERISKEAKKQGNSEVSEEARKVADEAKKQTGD
Excerpt: as §5, §6

[8] = target: T12, DHT03_3arm_A21/B21/C59 chain C; assay: as above
T12 chain: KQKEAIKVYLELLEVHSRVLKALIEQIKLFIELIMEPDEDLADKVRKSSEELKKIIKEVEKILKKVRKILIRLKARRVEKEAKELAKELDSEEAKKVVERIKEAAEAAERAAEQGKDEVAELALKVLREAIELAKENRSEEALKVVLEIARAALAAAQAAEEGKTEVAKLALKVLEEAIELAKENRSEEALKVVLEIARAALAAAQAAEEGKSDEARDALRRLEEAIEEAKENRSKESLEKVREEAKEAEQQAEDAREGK
Excerpt: as §5, §6

B1: DHT01 chain A (designed binder)
chain: DEEEKLRESLEEQKKRVKEIEREHEEIREALKRLQESVKRQEEALRQLG
notes: one chain of the co-expressed design carried a 6xHis-tag and a second a Strep-tag II
DHT01 chain B
  binding result: binds
DHT01 chain C
  binding result: binds

## B2
[1]
  binding result: binds

B3: DHT05 chain A (designed binder)
chain: PEEKKEIKRTTEEVKEEFRKIQEEIKKLEEEAKKAEKGNGKEEIKELLLRLSELLARSLQLLAQQIEAIAKLIRG
[2]
  binding result: binds

B4: DHT08 chain B (designed binder)
chain: DKEEKIKEILRRVQELRREHEELEERLKELKKELEKSPSQEELKKFIKLAQELIKLTLELIELSLRLIELLLG
DHT08 chain C
  binding result: binds

B5: DHT09 chain B (designed binder)
chain: SKEEILKLHLEVAEIHIETVKIYLEVIKILIRLIEKNSSKEDERELEEELKELERELEELQKKLEEIRKELQEIEG
DHT09 chain C
  binding result: binds

B6: DHT10 chain B (designed binder)
chain: SELEEEIKRIRKEIEESRRRIEELRKKAQKAREGSSEKEFLQIYIELQKVLIEQIKIYIELLQIIFELQS
DHT10 chain C
  binding result: binds

## QKEAIKVYLELLEVHSRVLKALIEQIKLFIELIKRK (designed binder) [DHT03_variant_ABC-2 chain B]
[3]
  binding result: binds

B7: DHT03_2arm_A21/Bt18/C chain B (designed binder)
chain: TEEKIAKEISRIAEESKKRIEELARKADNKTTETEVDKAIEKIAKLAREAIKRIEDLAKNLASEEFMARAISAIAELAKKAIEAIYRLADNHTTDTFMAKAIEAIAELAKEAIKAIADLAKNHTTEEFMARAISAIAELAKKAIEAIYRLADNHTTDTFMAKAIEAIAELAKEAIKAIADLAKNHTTEEFMAKAISAIMELAVKAILAIARLASNHTSQTYREKAREAVEKIARTAEKAIEDLAKNITTEEYKERAKKARAIVRVMAEVAKLLIEAVESQEEVERLKQEVEKASKAGLDHEGDSRIFKKIHDVVTKQIKVIIRLIAVYAELVAIIG
[4]
  binding result: binds

B8: DHT03_3arm chain B (B21, SEQ ID NO: 73) (designed binder)
chain: SEKEKVEELAQRIREQLPDTELAREAQELADEARKSDDSEALKVVYLALRIVQQLPDTELAREALELAKEAVKSTDSEQLEVVRLALEIVQLAPDTRLARAALKLAKEAVKSTDQEELKKVKAILRVASEVLKLEEEAKKSQEEVERLKQEVEKASKAGLDHEGDSRIFKKIHDVVTKQIKVILRLIAVYAELVAIIG
notes: separately expressed with an N- or C-terminal 6xHis-tag
[5]
  binding result: binds
[6]
  binding result: binds
[7]
  binding result: binds
[8]
  binding result: binds
